To fix the notation:
T1: human GlyT1 (Homo sapiens, UniProt P48067)
T1 construct: gene SLC6A9; Sf9 cells; LMNG/CHS; purified with Cmpd1
T1 sequence (P48067 1-706): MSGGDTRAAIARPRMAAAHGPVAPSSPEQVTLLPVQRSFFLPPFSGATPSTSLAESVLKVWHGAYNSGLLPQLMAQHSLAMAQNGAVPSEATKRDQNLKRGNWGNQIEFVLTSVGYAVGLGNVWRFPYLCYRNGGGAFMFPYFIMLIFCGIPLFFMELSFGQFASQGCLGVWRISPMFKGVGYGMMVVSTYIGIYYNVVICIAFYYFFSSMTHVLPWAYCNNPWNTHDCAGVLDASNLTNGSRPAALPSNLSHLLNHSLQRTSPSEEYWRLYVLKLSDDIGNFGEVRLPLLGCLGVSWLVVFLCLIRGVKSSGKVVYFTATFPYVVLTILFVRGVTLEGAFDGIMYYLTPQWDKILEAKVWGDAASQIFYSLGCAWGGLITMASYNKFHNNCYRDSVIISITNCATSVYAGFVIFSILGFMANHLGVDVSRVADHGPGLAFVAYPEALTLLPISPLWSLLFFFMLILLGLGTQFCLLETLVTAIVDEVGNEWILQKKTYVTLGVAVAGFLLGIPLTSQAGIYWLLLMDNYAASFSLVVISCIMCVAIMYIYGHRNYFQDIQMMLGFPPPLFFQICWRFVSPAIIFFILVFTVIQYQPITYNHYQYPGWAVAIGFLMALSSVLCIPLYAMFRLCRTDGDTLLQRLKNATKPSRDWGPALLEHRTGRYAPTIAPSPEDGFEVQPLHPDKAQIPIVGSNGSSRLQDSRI

B1: Sb_ENT1#1 (VHH)
VHH: QVQLVESGGGLVQAGGSLRLSCAASGFPVEYNTMYWYRQAPGKEREWVATIESWGWFTWYADSVKGRFTISRDNAKNTVYLQMNSLKPEDTAVYYCEVGVGHNYAGRGTQVTVS
notes: concave sybody; source: purified (Ni-NTA, SEC); not shown: Myc, C-terminal, kept
B2: Sb_GlyT1#3 (VHH)
VHH: QVQLVESGGGLVQAGGSLRLSCAASGFPVWNNGMAWYRQAPGKEREWVAAIASRGRSTVYADSVKGRFTISRDNAKNTVYLQMNSLKPEDTAVYYCYVNVGSHYEGQGTQVTVS
B3: Sb_GlyT1#6 (VHH)
VHH: QVQLVESGGGLVQAGGSLRLSCAASGFPVVYYEMYWYRQAPGKEREWVAAITSSGWYTHYADSVKGRFTISRDNAKNTVYLQMNSLKPEDTAVYYCNVKDWGASWKQYDYWGQGTQVTVS
B4: Sb_GlyT1#7 (VHH)
VHH: B3 VHH with V30Y, Y31A, T52S, W56T, Y57W, T58A, H59G, K106A, Q107Y
B5: Sb_GlyT1#1 (VHH)
VHH: QVQLVESGGGLVQAGGSLRLSCAASGFPVYYSHMLWYRQAPGKEREWVAAIKSLGAKTWYADSVKGRFTISRDNAKNTVYLQMNSLKPEDTAVYYCTVGVGTNYYGQGTQVTVS
B6: Sb_GlyT1#2 (VHH)
VHH: B5 VHH with Y31H, S32R, H33S, L54N, K57G, Y105W
B7: Sb_GlyT1#5 (VHH)
VHH: QVQLVESGGGLVQAGGSLRLSCAASGFPVMNRWMAWYRQAPGKEREWVAAVASYGETTRYADSVKGRFTISRDNAKNTVYLQMNSLKPEDTAVYYCNVKDWGWWTRAYDYWGQGTQVTVS
B8: Sb_GlyT1#4 (VHH)
VHH: QVQLVESGGGLVQAGGSLRLSCAASGFPVYAYVMAWYRQAPGKEREWVAAIKSQGVSTYYADSVKGRFTISRDNAKNTVYLQMNSLKPEDTAVYYCYVYVGTSYTGQGTQVTVS

Residue numbers refer to the chain shown, from its start.

As usually defined, the Kd is the free concentration of one partner at which half of the binding sites on the other are occupied at equilibrium, for simple one-to-one binding. One may read the koff as the first-order rate constant of dissociation. Read a low koff as slow dissociation. What is called kon is the second-order rate constant of association.

T2 sequence (Q99808 2-456): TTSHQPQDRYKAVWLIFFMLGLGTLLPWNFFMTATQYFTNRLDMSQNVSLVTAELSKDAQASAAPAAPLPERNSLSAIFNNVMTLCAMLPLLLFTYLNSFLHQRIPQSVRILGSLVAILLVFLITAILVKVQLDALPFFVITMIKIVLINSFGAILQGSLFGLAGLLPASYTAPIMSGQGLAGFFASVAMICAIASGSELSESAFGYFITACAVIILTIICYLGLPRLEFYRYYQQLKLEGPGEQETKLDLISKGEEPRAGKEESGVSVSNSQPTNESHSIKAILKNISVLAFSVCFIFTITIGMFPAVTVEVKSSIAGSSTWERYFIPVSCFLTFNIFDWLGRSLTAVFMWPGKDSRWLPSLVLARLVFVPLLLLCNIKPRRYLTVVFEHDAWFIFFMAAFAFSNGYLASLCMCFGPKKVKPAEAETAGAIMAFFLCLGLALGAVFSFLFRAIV

The first series addresses T2, Human ENT1(2–456) (Homo sapiens, UniProt Q99808, biotin on the Avi-tag (in vivo, co-transfected E. coli BirA); glycosylation reduced with PNGaseF and Endo-alpha-N-acetylgalactosaminidase).
T2 construct: human equilibrative nucleoside transporter 1 (ENT1, SLC29A1), residues 2-456, called wild-type, full length protein; also called equilibrative nucleoside transporter 1; SLC29A1; source: HEK293 freestyle cells, transient transfection, purified (TALON, SEC) in LMNG with NBTI; not shown: His10, N-terminal, cleaved; GFP (enhanced), N-terminal, cleaved; Avi, N-terminal, kept
Kind of series: SPR; Biacore T200, 18°C; biotinylated ENT1 (about 1000 RU) on SA sensor, sybody up to 475 nM as analyte; 20 mM HEPES pH 7.5, 150 mM NaCl, 0.001% LMNG, 1.25 µM DOPS; 50 µl/min; 1:1 model. To be noted: both partners purified.
Turning to B1, the Kd came out at 40 nM, the koff amounted to 0.00744 s⁻¹ and the kon is 186000 M⁻¹ s⁻¹.

The target of the next series is GFP [GFP: P42212]. Kind of series: pull-down; nanobody or sybody displayed on ribosomes (PUREfrexSS; 10^6 mRNA of 3K1K spiked into 10^12 mRNA of the non-randomized convex sybody), pulled down with biotinylated GFP or MBP immobilized on magnetic beads; retrieved mRNA reverse transcribed and quantified by qPCR against the input mRNA.
Details: not given
On the technique in general: Real-time PCR tracks product formation cycle by cycle.
As for 3K1K nanobody (VHH), the mRNA recovery (percent of input mRNA) is 84.6%.

Another series concerns the target T2, Human ENT1(2–456). Description: cell-based or functional assay.
Details: not given
Turning to B1, the “SPA signal (fold increase) of [3H]-NBTI binding at 30.1°C” value worked out at 7 fold and the “ΔTm(SPA-TS): shift of the apparent melting temperature of ENT1, read by binding of [3H]-NBTI” value is 6.1 °C.

A further series deals with Human GlyT1 (human) (UniProt P48067).
Assay: not given
Details: not given
Take B2: the SPA signal (fold increase) of [3H]-Org24598 binding at 19°C was 1.1 fold and the ΔTm(SPA-TS): shift of the melting temperature of GlyT1, read by binding of [3H]-Org24598 amounted to 1.7 °C.

Turning to B3, the SPA signal (fold increase) of [3H]-Org24598 binding at 19°C was 1.6 fold and the ΔTm(SPA-TS): shift of the melting temperature of GlyT1, read by binding of [3H]-Org24598 was found to be 8.8 °C.

B4: the SPA signal (fold increase) of [3H]-Org24598 binding at 19°C was determined as 1.8 fold and the ΔTm(SPA-TS): shift of the melting temperature of GlyT1, read by binding of [3H]-Org24598 came to 10 °C.

On to B5, for which the SPA signal (fold increase) of [3H]-Org24598 binding at 19°C is 1.2 fold and the ΔTm(SPA-TS): shift of the melting temperature of GlyT1, read by binding of [3H]-Org24598 came to 0.9 °C.

On to B6, for which the SPA signal (fold increase) of [3H]-Org24598 binding at 19°C worked out at 1.1 fold and the ΔTm(SPA-TS): shift of the melting temperature of GlyT1, read by binding of [3H]-Org24598 amounted to 1.5 °C.

B7: the SPA signal (fold increase) of [3H]-Org24598 binding at 19°C turned out to be 1.5 fold and the ΔTm(SPA-TS): shift of the melting temperature of GlyT1, read by binding of [3H]-Org24598 came to 2.6 °C.

Consider B8, for which the SPA signal (fold increase) of [3H]-Org24598 binding at 19°C came out at 1.5 fold and the ΔTm(SPA-TS): shift of the melting temperature of GlyT1, read by binding of [3H]-Org24598 turned out to be 2.1 °C.

The next series has the same target. Kind of series: SPR; Biacore T200, 18°C; biotinylated GlyT1 (about 300 RU) on SA sensor, sybody up to 2 µM as analyte; 20 mM Citrate pH 6.4, 150 mM NaCl, 0.004% LMNG; 50 µl/min; 1:1 model; single cycle for Sb_GlyT1#6; KD from kinetics or from equilibrium as the column says.
Details: not given
For orientation: SPR reads the build-up and loss of mass on a sensor chip optically.
In the case of B2, the Kd came to 154 nM.

B3: the dissociation constant (Kd) came out at 0.494 nM, the koff stood at 4.99e-05 s⁻¹ and the on-rate (kon) was 100000 M⁻¹ s⁻¹.

As to B4, the equilibrium dissociation constant (Kd) is 9.18 nM, the koff amounted to 0.000185 s⁻¹ and the kon was 20100 M⁻¹ s⁻¹.

Molecule B5 gave a Kd of 307 nM, a koff of 0.0577 s⁻¹ and a kon of 188000 M⁻¹ s⁻¹.

Turning to B6, the Kd amounted to 2520 nM, the koff turned out to be 0.0928 s⁻¹ and the kon was found to be 36800 M⁻¹ s⁻¹.

As to B7, the Kd is 81.9 nM, the koff was found to be 0.0372 s⁻¹ and the kon is 454000 M⁻¹ s⁻¹.

As for B8, the Kd was found to be 476 nM.

For another series, the target named is T1, human GlyT1.
Assay: not given
It counts as binding. The note with it: 6 nM [3H]-Org24598, labelled compound, 4°C, LMNG; citrate pH 6.4 (buffer assignment by 'respectively'); with and without sybodies.
On to `CN(CC[C@@H](Oc1ccc(C(F)(F)F)cc1)c1ccccc1)CC(=O)O` [Org24598], for which the “scintillation proximity assay (SPA-TS) with [3H]-Org24598” value is on record as “SPA-TS analysis using the commercially available tritiated inhibitor Org24598”.
